# Read-outs that look alike come from different tables or passages of the source.
# B1: MAT II β subunit: recombinant regulatory β subunit of human methionine adenosyltransferase II, 334 amino acids, expressed in E. coli or Cos-1 cells (protein, UniProt Q9NZL9 2-334, looked up)
# Methionine …: VGREKELSIHFVPGSCRLVEEEVNIPNRRVLVTGATGLLGRAVHKEFQQNNWHAVGCGFRRARPKFEQVNLLDSNAVHHIIHDFQPHVIVHCAAERRPDVVENQPDAASQLNVDASGNLAKEAAAVGAFLIYISSDYVFDGTNPPYREEDIPAPLNLYGKTKLDGEKAVLENNLGAAVLRIPILYGEVEKLEESAVTVMFDKVQFSNKSANMDHWQQRFPTHVKDVATVCRQLAEKRMLDPSIKGTFHWSGNEQMTKYEMACAIADAFNLPSSHLRPITDSPVLGAQRPRNAQLDCSKLETLGIGQRTPFRIGIKESLWPFLIDKRWRQTVFH
# Tests used:
# [1] = target: E. coli MAT α protein (Escherichia coli, UniProt P0A817); details: Ni-NTA agarose, native conditions
# Sequence of E. coli MAT α protein (Q9NZL9 whole entry): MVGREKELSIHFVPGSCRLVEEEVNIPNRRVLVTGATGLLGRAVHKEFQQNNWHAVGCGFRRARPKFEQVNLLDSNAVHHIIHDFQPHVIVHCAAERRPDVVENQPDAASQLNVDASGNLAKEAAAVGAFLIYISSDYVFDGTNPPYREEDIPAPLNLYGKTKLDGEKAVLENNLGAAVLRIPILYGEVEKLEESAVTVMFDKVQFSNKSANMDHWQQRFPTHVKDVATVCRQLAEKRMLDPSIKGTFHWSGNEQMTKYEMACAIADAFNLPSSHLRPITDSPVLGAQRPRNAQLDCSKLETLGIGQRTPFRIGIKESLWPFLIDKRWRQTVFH
# Sequence of E. coli MAT α protein (P0A817 2-384): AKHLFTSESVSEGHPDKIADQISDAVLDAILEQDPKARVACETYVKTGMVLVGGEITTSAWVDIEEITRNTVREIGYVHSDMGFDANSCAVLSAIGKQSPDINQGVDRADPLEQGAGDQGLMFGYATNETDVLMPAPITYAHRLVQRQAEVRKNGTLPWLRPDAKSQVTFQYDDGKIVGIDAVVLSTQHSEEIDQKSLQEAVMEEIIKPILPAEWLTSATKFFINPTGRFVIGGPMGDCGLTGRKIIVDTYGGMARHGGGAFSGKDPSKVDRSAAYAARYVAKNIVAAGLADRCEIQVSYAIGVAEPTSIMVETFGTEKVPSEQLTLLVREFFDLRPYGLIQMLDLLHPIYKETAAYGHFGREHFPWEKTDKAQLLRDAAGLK
# Method: The MAT II β expression clone, Clone 5, was inoculated into one liter of LB broth containing 25 μg/ml kanamycin and 100 μg/ml ampicillin, then incubated with shaking at 37° C. until an OD600 of 0.5-0.7 was reached. IPTG (Sigma) was added to a final concentration of 1 mM, and the culture was allowed to incubate for an additional 4 hours under the same conditions. […] The first, involved purification of the His-tagged protein under denaturing conditions of 8M urea, and the second involved separation of SDS-PAGE and elution of the β subunit protein from the gel.
# [2] = MAT assay of recombinant MAT II β subunit protein alone; format: biochemical
# Method: MAT activity was assayed as previously described (22,29,31). The assay contained 5-120 μM L-methionine (L-Met), 5 mM ATP in 50 mM TES buffer, pH 7.4,50 mM KCl, 15 mM MgCl2, 0.3 mM EDTA, and 4 mM DTT. The L-Met concentration was varied as indicated in the kinetic analysis. One unit (U) of MAT activity is defined as the amount of enzyme that catalyzes the formation of 1 nmol of AdoMet in 1 hour.
# [3] = test system: MAT II; assay: MAT activity and kinetics in extracts of transfected Cos-1 cells; format: biochemical, African green monkey
# Method: Transfection of Cos-1 cells with pTargeT™/MAT2A or pTargeT™/MAT2B was done using the cationic lipid reagent, Transfast™ (Promega). Preliminary experiments were carried out to optimize the transfection conditions. Typically, 1.5×10^6 cells were plated in 100 mm dish one day prior to transfection. For each plate, […] of vector DNA was applied in the ratio of 1:1 to Transfast™ in a protein-free medium for 2 h. For cells co-transfected with both α2 and β vectors, […] DNA from each was used. For each experiment, one untransfected plate served as a normal control, and a second plate was transfected with the pTargeT™ vector only (mock-transfected cells). After 48 h, cells were harvested by trypsinization with a solution containing 0.05% trypsin and 0.53 mM EDTA in Hank's balanced salt solution (HBSS, from Cellgro). Trypsinization was stopped by the addition of media supplemented with 10% FCS, cells were pelleted, washed three times in 1 ml HBSS, counted, then resuspended in 1× extraction buffer with protease inhibitors (50 mM Tris, pH 7.4, 100 mM NaCl, 5 mM MgCl2, 4 mM dithiothreitol, 0.1 IU/ml aprotinin, 0.5 mM PMSF and […] soybean trypsin inhibitor). Cells were lysed by three cycles of quick freezing and thawing, and the lysate was clarified by centrifugation at 15,000×g for 10 min at 4° C. If not immediately used; cell extracts were stored at −80° C. Protein assays were performed using the bicinchoninic acid reagent (Sigma) following the manufacturer instructions.
# MAT activity in cell extracts was assayed as previously described (Kotb, M., and Kredich, N. M. (1985) J. Biol. Chem. 260, 3923-30). […] The concentration of L-Met was varied between […] using ^14C-L-Met (57.9 mCi/mmol) to a concentration of up to […], and supplementary with cold L-Met for higher concentrations.
molecule,measurement,setting,value
B1,association / co-purification with E. coli MAT α,[1]; listed as recombinant MAT II β subunit protein,associated spontaneously
same,association / co-purification with E. coli MAT α,[1]; listed as recombinant human MAT II β subunit protein,co-purifying
same,MAT catalytic activity,[2],no MAT catalytic activity
same,effect on the Km for L-Met of the endogenous MAT II,[3]; expression in Cos-1 cells,no effect
same,effect on MAT (specific) activity,"[3]; expression in Cos-1 cells, result in words",increase
same,Km,"[3]; extracts of Cos-1 cells transfected with β or co-transfected with α2 and β, single kinetic form, read-out: Km for L-Met",20 µM
same,increase in MAT activity,[3]; transfected Cos-1 cell extracts compared to untransfected (or mock-transfected) cells,~2 fold

# — US20040259198A1, “Purified and isolated mat II beta subunit nucleic acids and polypeptides and therapeutic and screening methods using same” (priority 1999, published 2004)
